Measured values as given in the RNAGym collection of RNA variant scans (doi:10.1073/pnas.2313332121).

B1: TPR t1 (parent)
chain: GACCAAUCUGCCCUCAGAGCUCGAGAACAUCUUCGGAUGCAGAGGAGGCAGGCUUCGGUGGCGCGAUAGCGCCAACGUCCUCAACCUCCAAUGCAUCCCACCACAUGAUGAUGCCUGAAGAGCCUUGGUUUUUUG

Variants of: B1
Experiment: polymerase ribozyme fitness, log enrichment relative to wild type (log ratio); higher = more active; in vitro selection for triplet polymerase activity
Summary of the method: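 Frozen incubation at −7 °C formed the core of a single, triplicate in vitro selection round applied to PCR-built, transcribed mutant libraries of each subunit of a heterodimeric triplet polymerase ribozyme. Extended constructs were gel-excised, captured with streptavidin beads and amplified by RT-PCR, and input and output libraries were Illumina-sequenced with a filter of ≥10 input reads and ≥1 read per output. Fitness is the logarithm of genotype enrichment relative to wild-type enrichment, with inverse-variance-weighted replicate averaging, and the logarithm is base 2.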

Point of comparison: C12A C62A C72U C98U U126C, “polymerase ribozyme fitness (log ratio)” value -2.97. Against it:
- C12A C40U U59A A111G C124A — higher, -0.777
- C12A C49G G63C C86G U131G — within 0.2 log units, -3.12
- C12A C53U C56G G135A — higher, -2.18
- C12A C56A C80U A84U C89U A119G C123A — higher, -0.802
- C12A C62G U78C C79A C85G — lower, -7.47
- C12A C62U A83G A100C — lower, -3.89
- C12A C64A — lower, -5.04
- C12A C64G C98G A103U A119G — lower, -6.93
- C12A C64U C72U — higher, -1.01
- C12A C70A C85G U116C — lower, -4.83
- C12A C70A G127U — higher, -2.31
- C12A C72U A100C U133G — higher, -1.76
- C12A C72U A100U — higher, -2.13
- C12A C73U C76A G120C — higher, -0.37
- C12A C76A C82A U92G — lower, -4.72
- C12A C76U U106A — higher, -1.29
- C12A C85G — within 0.2 log units, -2.79
- C12A C85G U116C — lower, -3.68
- C12A C86A U112A — higher, 0.277
- C12A C86G C123A — higher, 0.105
- C12A C86U A111U — lower, -3.42
- C12A C89G G93A — within 0.2 log units, -2.86
- C12A C94U — higher, -0.961
- C12A C102U C115A — lower, -4.21
- C12A C114U G135A — lower, -3.81
- C12A G17U A43U — lower, -4.46
- C12A G17U G42U C53G U59C C101A — lower, -5.66
- C12A G19A C22G A27C U30A C40A A46C C56A C82A U92G U109G — lower, -8.5
- C12A G19U C73A G77C — lower, -5.03
- C12A G19U G42U U92A U112C U129G — lower, -3.59
- C12A G39C G47A A66U — within 0.2 log units, -3.14
- C12A G42A C88U C114A G120A — higher, -2.22
- C12A G42U C88G C114U — lower, -4.43
- C12A G45C — higher, -1.32
- C12A G45C G63U — higher, -2.35
- C12A G47C C70U — higher, -0.753
- C12A G48U — higher, -2.61
- C12A G48U C98U — higher, -2.11
- C12A G51A — higher, -2.41
- C12A G51C — lower, -4.5
- C12A G51U C64U A90G — higher, -2.6
- C12A G51U G77A — higher, -1.98
- C12A G52A A91G — higher, -1.2
- C12A G57U A91G U96A — within 0.2 log units, -3.09
- C12A G60A — higher, -1.28
- C12A G61C U78C C80U C82A A121C — lower, -7.45
- C12A G61U A66C U78C C80A G107U C114U G127C — lower, -6.6
- C12A G61U U78A U96A — higher, -1.84
- C12A G63C C102G C104U G113A — lower, -7.42
- C12A G69C A90U U106A — lower, -4.63
- C12A G69C C85A G113U G127A U130C — lower, -7.98
- C12A G77U C82U — higher, -1.87
- C12A G107C A119C G120A — lower, -4.18
- C12A G110C — lower, -3.17
- C12A G117A — higher, -1.29
- C12A G120A U126G — higher, 0.354
- C12A G120C A121U — higher, 1.87
- C12A U14A U87A C88U — lower, -4.28
- C12A U21A C53A G71U C98U — lower, -4.86
- C12A U32C U96A G122C C123G U131A — higher, -0.725
- C12A U33A G48U A74C C94U — lower, -5.8
- C12A U33C A103C G113U C114G G127U — lower, -6.43
- C12A U33G G48A A119G — lower, -5.25
- C12A U54A G113C U125G — lower, -3.66
- C12A U55A G122A U126A — lower, -5.02
- C12A U55G C72U U92G — within 0.2 log units, -2.88
- C12A U78A — higher, -1.37
- C12A U81A — higher, -1.96
- C12A U96A A121G — higher, -0.355
- C12A U130A — higher, -2.22
- C12A U133G — higher, -1.24
- C12G A16U G45U C89G U129C — lower, -4.69
- C12G A18C C80U U112G — lower, -3.95
- C12G A18U G51U A74G C86A C124A — lower, -6.6
- C12G A26C G60U — lower, -3.25
- C12G A26G — higher, -1.93
- C12G A26G C98U — lower, -3.76
- C12G A27G — higher, -1.67
- C12G A27U C56U C101G C102A C104G C114U — lower, -5.64
- C12G A29U A46U C124A — higher, -1.77
- C12G A29U G39U U55G — higher, -2.45
- C12G A41C C82U — higher, -0.401
- C12G A41U A83U G113C — lower, -3.27
